B1: wild-type Ty1 RT (Saccharomyces cerevisiae S288C) (protein)
chain: MESQQLSQHSHISHGSACASVTSKEVHTNQDPLDVSASKTEECEKASTKANSQQTTTPASSAVPENPHHASPQPASVPPPQNGPYPQQCMMTQNQANPSGWSFYGHPSMIPYTPYQMSPMYFPPGPQSQFPQYPSSVGTPLSTPSPESGNTFTDSSSADSDMTSTKKYVRPPPMLTSPNDFPNWVKTYIKFLQNSNLGGIIPTVNGKPVRQITDDELTFLYNTFQIFAPSQFLPTWVKDILSVDYTDIMKILSKSIEKMQSDTQEANDIVTLANLQYNGSTPADAFETKVTNIIDRLNNNGIHINNKVACQLIMRGLSGEYKFLRYTRHRHLNMTVAELFLDIHAIYEEQQGSRNSKPNYRRNLSDEKNDSRSYTNTTKPKVIARNPQKTNNSKSKTARAHNVSTSNNSPSTDNDSISKSTTEPIQLNNKHDLHLGQELTESTVNHTNHSDDELPGHLLLDSGASRTLIRSAHHIHSASSNPDINVVDAQKRNIPINAIGDLQFHFQDNTKTSIKVLHTPNIAYDLLSLNELAAVDITACFTKNVLERSDGTVLAPIVQYGDFYWVSKRYLLPSNISVPTINNVHTSESTRKYPYPFIHRMLAHANAQTIRYSLKNNTITYFNESDVDWSSAIDYQCPDCLIGKSTKHRHIKGSRLKYQNSYEPFQYLHTDIFGPVHNLPKSAPSYFISFTDETTKFRWVYPLHDRREDSILDVFTTILAFIKNQFQASVLVIQMDRGSEYTNRTLHKFLEKNGITPCYTTTADSRAHGVAERLNRTLLDDCRTQLQCSGLPNHLWFSAIEFSTIVRNSLASPKSKKSARQHAGLAGLDISTLLPFGQPVIVNDHNPNSKIHPRGIPGYALHPSRNSYGYIIYLPSLKKTVDTTNYVILQGKESRLDQFNYDALTFDEDLNRLTASYQSFIASNEIQESNDLNIESDHDFQSDIELHPEQPRNVLSKAVSPTDSTPPSTHTEDSKRVSKTNIRAPREVDPNISESNILPSKKRSSTPQISNIESTGSGGMHKLNVPLLAPMSQSNTHESSHASKSKDFRHSDSYSENETNHTNVPISSTGGTNNKTVPQISDQETEKRIIHRSPSIDASPPENNSSHNIVPIKTPTTVSEQNTEESIIADLPLPDLPPESPTEFPDPFKELPPINSHQTNSSLGGIGDSNAYTTINSKKRSLEDNETEIKVSRDTWNTKNMRSLEPPRSKKRIHLIAAVKAVKSIKPIRTTLRYDEAITYNKDIKEKEKYIEAYHKEVNQLLKMKTWDTDEYYDRKEIDPKRVINSMFIFNKKRDGTHKARFVARGDIQHPDTYDTGMQSNTVHHYALMTSLSLALDNNYYITQLDISSAYLYADIKEELYIRPPPHLGMNDKLIRLKKSHYGLKQSGANWYETIKSYLIKQCGMEEVRGWSCVFKNSQVTICLFVDDMILFSKDLNANKKIITTLKKQYDTKIINLGESDNEIQYDILGLEIKYQRGKYMKLGMENSLTEKIPKLNVPLNPKGRKLSAPGQPGLYIDQDELEIDEDEYKEKVHEMQKLIGLASYVGYKFRFDLLYYINTLAQHILFPSRQVLDMTYELIQFMWDTRDKQLIWHKNKPTEPDNKLVAISDASYGNQPYYKSQIGNIFLLNGKVIGGKSTKASLTCTSTTEAEIHAISESVPLLNNLSYLIQELNKKPIIKGLLTDSRSTISIIKSTNEEKFRNRFFGTKAMRLRDEVSGNNLYVYYIETKKNIADVMTKPLPIKTFKLLTNKWIH
B2: D211N Ty1 RT (Saccharomyces cerevisiae S288C; D1428N) (protein)
chain: AVKAVKSIKPIRTTLRYDEAITYNKDIKEKEKYIEAYHKEVNQLLKMKTWDTDEYYDRKEIDPKRVINSMFIFNKKRDGTHKARFVARGDIQHPDTYDTGMQSNTVHHYALMTSLSLALDNNYYITQLDISSAYLYADIKEELYIRPPPHLGMNDKLIRLKKSHYGLKQSGANWYETIKSYLIKQCGMEEVRGWSCVFKNSQVTICLFVDNMILFSKDLNANKKIITTLKKQYDTKIINLGESDNEIQYDILGLEIKYQRGKYMKLGMENSLTEKIPKLNVPLNPKGRKLSAPGQPGLYIDQDELEIDEDEYKEKVHEMQKLIGLASYVGYKFRFDLLYYINTLAQHILFPSRQVLDMTYELIQFMWDTRDKQLIWHKNKPTEPDNKLVAISDASYGNQPYYKSQIGNIFLLNGKVIGGKSTKASLTCTSTTEAEIHAISESVPLLNNLSYLIQELNKKPIIKGLLTDSRSTISIIKSTNEEKFRNRFFGTKAMRLRDEVSGNNLYVYYIETKKNIADVMTKPLPIKTFKLLTNKWIH

Substrate: [Mg+2]
Experiment: purified protein, by the assay type
Details: fit to Hill equation

Protein	kcat (other: Wt. Ty1 RT) [s⁻¹]	kcat (other: D211N Ty1 RT) [s⁻¹]
B1	0.000447 ± 8.89e-05	
B2		0.000444 ± 7.78e-05

From patent US7601489B2, “Manganese ion regulation of reverse transcriptase activity and methods of modulating same” (The Johns Hopkins University, priority 2002, dated 2009)
